According to patent US20140045754A1, “GLP-1 COMPOSITIONS” (priority 2011, published 2014):

Tests used:
[1] = optimisation of liraglutide:protamine molar ratios: free liraglutide and protamine in supernatant by liquid chromatography; settings: pH 7,8; 0,11 molecule of protamine per molecule of liraglutide
Experimental: In each of 8 containers, 10% of the resulting suspension was transferred. Under vigorous stirring, a specific portion of a 18 mM Protamine Chloride solution was added.
The initial container received 0,10 mL of the 18 mM Protamine Chloride solution, followed by 0,2 mL to the second container; ending with addition of 0,8 mL to the final container (number 8). Water was added to each of the eight containers to achieve a total of 5,0 grams of suspension. After 1 hour storage, about 1 mL were withdrawn from each container and centrifuged for 10 minutes at high speed.

[2] = achievable concentration of protamine sulphate stock solution with NaCl; format: physicochemical; settings: 21° C.
Experimental: In one embodiment, the stock solution of the polycationic compound is prepared with NaCl. […] This allows the storage and/or use of higher concentrations and lowers the volumes of polycationic compound stock solution needed. This makes much larger volume available for either the GLP-1 compound stock solution or the solution of metal salt. Thereby, it is easier to control the mixing process, involving the aqueous solution of GLP-1 compound and the stock solution of metal salt. As a result of this, the injectability of the final formulation is improved, especially after storage at elevated temperatures. For example, a 30-60 mg/mL protamine sulphate stock solution is achievable at 21° C. when adding sodium chloride corresponding to a concentration of 0,3M, and a 30-80 mg/mL protamine sulphate stock solution is achievable at 21° C. when adding sodium chloride corresponding to a concentration of 0,5M.

Compound | composition stability and incorporation of protamine [1] | achievable stock solution concentration ([2]; sodium chloride 0,3M) | achievable stock solution concentration ([2]; sodium chloride 0,5M)
CCCCCCCCCCCCCCCC(=O)N[C@@H](CCC(=O)NCCCC[C@H](NC(=O)[C@H](C)NC(=O)[C@H](C)NC(=O)[C@H](CCC(N)=O)NC(=O)CNC(=O)[C@H](CCC(=O)O)NC(=O)[C@H](CC(C)C)NC(=O)[C@H](Cc1ccc(O)cc1)NC(=O)[C@H](CO)NC(=O)[C@H](CO)NC(=O)[C@@H](NC(=O)[C@H](CC(=O)O)NC(=O)[C@H](CO)NC(=O)[C@@H](NC(=O)[C@H](Cc1ccccc1)NC(=O)[C@@H](NC(=O)CNC(=O)[C@H](CCC(=O)O)NC(=O)[C@H](C)NC(=O)[C@@H](N)Cc1cnc[nH]1)[C@@H](C)O)[C@@H](C)O)C(C)C)C(=O)N[C@@H](CCC(=O)O)C(=O)N[C@@H](Cc1ccccc1)C(=O)N[C@H](C(=O)N[C@@H](C)C(=O)N[C@@H](Cc1c[nH]c2ccccc12)C(=O)N[C@@H](CC(C)C)C(=O)N[C@H](C(=O)N[C@@H](CCCNC(=N)N)C(=O)NCC(=O)N[C@@H](CCCNC(=N)N)C(=O)NCC(=O)O)C(C)C)[C@@H](C)CC)C(=O)O [liraglutide, N^ε26-[(4S)-4-carboxy-4-(hexadecanoylamino)butanoyl]-[Arg^34]-GLP-1-(7-37)-peptide] | good composition stability |  | 
protamine sulphate |  | 30 to 60 mg/mL | 30 to 80 mg/mL
